Article PMC2648068 (Journal of immunology (Baltimore, Md. : 1950), 2009)

Columns and labels:
Assay in all cases: ELISA
recombinant mouse TLR1 = target: T1, recombinant mouse TLR1 (mouse, UniProt Q9EPQ1 26-582)
T1 sequence (looked up): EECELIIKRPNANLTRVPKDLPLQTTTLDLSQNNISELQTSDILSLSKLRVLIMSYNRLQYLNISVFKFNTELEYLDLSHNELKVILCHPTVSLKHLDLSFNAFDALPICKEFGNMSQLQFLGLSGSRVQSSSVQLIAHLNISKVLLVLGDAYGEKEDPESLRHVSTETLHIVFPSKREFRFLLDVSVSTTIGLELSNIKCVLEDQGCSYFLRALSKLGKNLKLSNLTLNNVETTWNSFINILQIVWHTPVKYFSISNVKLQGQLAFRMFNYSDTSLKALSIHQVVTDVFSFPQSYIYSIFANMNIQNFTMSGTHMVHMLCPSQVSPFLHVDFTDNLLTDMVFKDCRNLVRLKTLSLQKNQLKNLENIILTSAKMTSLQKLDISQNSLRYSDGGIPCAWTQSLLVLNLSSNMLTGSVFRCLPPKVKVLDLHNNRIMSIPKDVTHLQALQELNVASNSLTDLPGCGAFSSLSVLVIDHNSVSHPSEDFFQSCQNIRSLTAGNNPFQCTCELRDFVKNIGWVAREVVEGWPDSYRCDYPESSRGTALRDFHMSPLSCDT

recombinant human TLR1 = target: T2, recombinant human TLR1 (human, UniProt Q15399 25-580)
T2 sequence (looked up): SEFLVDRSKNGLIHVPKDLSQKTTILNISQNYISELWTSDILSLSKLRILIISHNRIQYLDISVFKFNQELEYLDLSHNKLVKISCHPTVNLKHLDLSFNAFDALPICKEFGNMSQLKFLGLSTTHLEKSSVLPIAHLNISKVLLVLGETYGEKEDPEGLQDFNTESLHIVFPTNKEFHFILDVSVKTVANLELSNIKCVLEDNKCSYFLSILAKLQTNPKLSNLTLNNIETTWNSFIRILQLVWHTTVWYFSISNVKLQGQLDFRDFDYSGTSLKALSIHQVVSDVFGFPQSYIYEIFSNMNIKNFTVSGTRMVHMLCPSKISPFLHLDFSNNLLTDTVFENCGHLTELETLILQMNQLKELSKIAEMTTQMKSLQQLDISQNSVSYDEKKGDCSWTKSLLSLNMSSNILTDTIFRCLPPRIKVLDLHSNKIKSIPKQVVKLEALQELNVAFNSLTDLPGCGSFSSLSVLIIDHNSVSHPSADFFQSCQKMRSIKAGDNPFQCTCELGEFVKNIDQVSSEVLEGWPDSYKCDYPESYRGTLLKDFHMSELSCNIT

recombinant mouse TLR2 = target: T3, recombinant mouse TLR2 (mouse, UniProt Q9QUN7 25-587)
T3 sequence (looked up): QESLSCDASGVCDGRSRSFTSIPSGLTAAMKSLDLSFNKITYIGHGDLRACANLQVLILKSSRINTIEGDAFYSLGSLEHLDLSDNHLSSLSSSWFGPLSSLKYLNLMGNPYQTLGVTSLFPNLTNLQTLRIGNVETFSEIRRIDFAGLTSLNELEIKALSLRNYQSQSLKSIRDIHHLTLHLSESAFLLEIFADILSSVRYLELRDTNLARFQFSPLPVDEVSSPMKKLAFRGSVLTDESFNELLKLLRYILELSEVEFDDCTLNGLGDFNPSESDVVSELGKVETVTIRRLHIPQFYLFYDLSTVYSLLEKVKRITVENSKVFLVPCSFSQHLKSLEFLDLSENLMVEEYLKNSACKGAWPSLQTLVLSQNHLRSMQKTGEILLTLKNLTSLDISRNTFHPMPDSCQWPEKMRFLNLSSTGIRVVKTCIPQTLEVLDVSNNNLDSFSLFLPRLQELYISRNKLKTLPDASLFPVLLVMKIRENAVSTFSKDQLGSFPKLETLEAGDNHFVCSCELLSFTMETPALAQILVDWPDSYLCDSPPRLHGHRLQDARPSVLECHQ

recombinant human TLR2 = recombinant human TLR2 (human, UniProt O60603 21-588)
recombinant human TLR2, sequence (O60603 21-588): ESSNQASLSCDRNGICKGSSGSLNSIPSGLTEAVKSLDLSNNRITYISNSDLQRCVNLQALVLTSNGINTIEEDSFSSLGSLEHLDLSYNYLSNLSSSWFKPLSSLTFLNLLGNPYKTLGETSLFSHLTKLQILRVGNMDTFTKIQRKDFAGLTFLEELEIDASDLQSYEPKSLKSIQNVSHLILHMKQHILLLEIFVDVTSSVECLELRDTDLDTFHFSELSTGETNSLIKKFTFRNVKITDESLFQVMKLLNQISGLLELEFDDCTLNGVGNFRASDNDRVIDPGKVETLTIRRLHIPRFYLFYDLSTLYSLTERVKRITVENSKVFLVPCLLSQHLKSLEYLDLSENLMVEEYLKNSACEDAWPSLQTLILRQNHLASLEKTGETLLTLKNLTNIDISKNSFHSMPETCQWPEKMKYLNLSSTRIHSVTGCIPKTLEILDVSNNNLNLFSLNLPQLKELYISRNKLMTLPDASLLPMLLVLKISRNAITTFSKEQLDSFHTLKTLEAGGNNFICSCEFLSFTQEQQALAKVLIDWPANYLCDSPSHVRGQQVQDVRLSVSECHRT

Measured: binding result

B1: LT-IIb-B5, pentameric B subunit of type IIb E. coli enterotoxin (wild-type) (natural protein)
chain: GASQFFKDNCNRTTASLVEGVELTKYISDINNNTDGMYVVSSTGGVWRISRAKDYPDNVMTAEMRKIAMAAVLSGMRVNMCASPASSPNVIWAIELEAE
binds: all assays above
